The text below walks through data of PMC12011707.

Where a chain is given by its changes, count along the chain named.

To fix the notation:
B1: wildtype FGF10 (38-208) (ligand)
chain: QALGQDMVSPEATNSSSSSFSSPSSAGRHVRSYNHLQGDVRWRKLFSFTKYFLKIEKNGKVSGTKKENCPYSILEITSVEIGVVAVKAINSNYYLAMNKKGKLYGSKEFNNDCKLKERIEENGYNTYASFNWQHNGRQMYVALNGKGAPRRGQKTRRKNTSAHFLPMVVHS
B2: FGF10-STAB2 (ligand)
chain: B1 chain with W42I, K50G, K57P, N92G, Q133R, R150V
B3: FGF10-STAB3 (ligand)
chain: B1 chain with W42I, K50G, K57P, N92G, Q133R, R150E

The target of the assay is human extracellular domain of FGFR2b fused with the Fc domain of IgG1 (human). Nature of the assay: BLI; Octet K2; FGFR extracellular domain-Fc immobilised on a protein A biosensor; FGF10 variants in PBS, 31.25 to 250 nM (told for FGFR2b-Fc); association and dissociation 300 s each; KD from fitted saturation binding curves.
B1 had a Kd of 764 nM.
B2 returned a Kd of 996 nM.
The molecule B3 showed a Kd of 913 nM.
